Reference: PMC10681800, “Structural and functional investigation of GajB protein in Gabija anti-phage defense” (Nucleic Acids Research, 2023)
“And” between values parts separate entries of the source, which are not always exact repeats. Identical values can stand only once.

T1: GajB of the Gabija anti-phage defense system of Bacillus cereus VD045, purified on its own, (His)6-MBP tag … (Bacillus cereus VD045, UniProt J8HQ06 1-494)
T1 chain: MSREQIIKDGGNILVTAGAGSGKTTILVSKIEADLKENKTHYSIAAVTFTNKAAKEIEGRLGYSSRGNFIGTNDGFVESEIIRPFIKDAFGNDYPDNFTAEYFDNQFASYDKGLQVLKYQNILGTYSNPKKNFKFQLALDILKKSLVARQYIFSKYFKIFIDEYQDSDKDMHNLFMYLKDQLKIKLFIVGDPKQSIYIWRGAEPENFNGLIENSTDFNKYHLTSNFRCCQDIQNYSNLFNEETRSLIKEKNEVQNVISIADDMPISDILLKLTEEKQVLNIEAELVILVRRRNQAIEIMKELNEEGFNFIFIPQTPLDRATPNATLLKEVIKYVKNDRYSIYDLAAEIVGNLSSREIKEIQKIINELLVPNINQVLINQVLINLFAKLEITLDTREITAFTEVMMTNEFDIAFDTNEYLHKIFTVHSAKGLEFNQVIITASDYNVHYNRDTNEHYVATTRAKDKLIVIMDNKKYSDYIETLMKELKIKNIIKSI

T2: GajA;GajB (Bacillus cereus VD045;Bacillus cereus …, UniProt J8H9C1;J8HQ06 1-578;1-494, |)
T2 sequence 1: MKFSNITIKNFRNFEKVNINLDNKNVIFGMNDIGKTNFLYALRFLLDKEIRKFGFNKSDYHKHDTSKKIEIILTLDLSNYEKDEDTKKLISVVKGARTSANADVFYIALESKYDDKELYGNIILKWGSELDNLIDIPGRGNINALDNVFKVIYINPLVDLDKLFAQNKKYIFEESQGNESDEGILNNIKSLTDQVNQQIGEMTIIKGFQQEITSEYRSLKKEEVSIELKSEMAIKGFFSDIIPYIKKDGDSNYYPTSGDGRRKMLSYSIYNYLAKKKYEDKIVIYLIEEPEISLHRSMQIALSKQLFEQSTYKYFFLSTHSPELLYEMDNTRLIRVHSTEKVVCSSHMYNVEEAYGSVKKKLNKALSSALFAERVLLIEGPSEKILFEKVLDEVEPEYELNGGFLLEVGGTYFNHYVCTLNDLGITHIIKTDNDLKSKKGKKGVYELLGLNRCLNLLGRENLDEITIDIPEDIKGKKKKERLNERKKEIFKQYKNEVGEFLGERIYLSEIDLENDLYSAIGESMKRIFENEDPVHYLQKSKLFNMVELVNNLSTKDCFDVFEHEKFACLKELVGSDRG
T2 sequence 2: T1 chain

T3: GajB (Bacillus cereus VD045, UniProt J8HQ06 1-494)
T3 sequence: T1 chain

T4: UvrD (Escherichia coli DH5alpha, UniProt P03018 1-720)
T4 sequence: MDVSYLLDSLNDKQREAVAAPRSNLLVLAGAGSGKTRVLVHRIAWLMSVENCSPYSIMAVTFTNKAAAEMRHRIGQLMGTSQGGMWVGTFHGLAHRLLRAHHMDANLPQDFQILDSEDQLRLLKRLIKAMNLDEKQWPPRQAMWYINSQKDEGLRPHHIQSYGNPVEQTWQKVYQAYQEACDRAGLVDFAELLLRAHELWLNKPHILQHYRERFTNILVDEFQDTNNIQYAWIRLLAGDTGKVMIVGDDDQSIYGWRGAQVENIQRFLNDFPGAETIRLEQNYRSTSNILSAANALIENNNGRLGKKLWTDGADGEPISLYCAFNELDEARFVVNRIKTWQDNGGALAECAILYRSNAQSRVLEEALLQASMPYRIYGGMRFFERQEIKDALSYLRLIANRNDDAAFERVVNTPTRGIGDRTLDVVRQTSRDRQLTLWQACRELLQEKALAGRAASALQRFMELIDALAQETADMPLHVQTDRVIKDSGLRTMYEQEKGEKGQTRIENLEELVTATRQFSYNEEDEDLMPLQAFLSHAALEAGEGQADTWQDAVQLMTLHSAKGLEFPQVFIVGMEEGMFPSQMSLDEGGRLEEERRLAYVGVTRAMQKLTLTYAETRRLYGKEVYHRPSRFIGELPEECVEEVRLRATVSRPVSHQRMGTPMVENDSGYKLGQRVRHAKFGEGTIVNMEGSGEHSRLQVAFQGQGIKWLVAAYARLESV

B1: GajA of the Gabija anti-phage defense system of Bacillus cereus VD045, with a C-terminal (His)6 tag, purified on its own (enzyme, UniProt J8H9C1 1-578, looked up)
chain: T2 sequence 1
notes: GajA, Bacillus cereus VD045, synthetic gene in pET21a; 67.0 kDa as printed; Tetramer by SEC-MALS and analytical SEC; also called individually purified GajA; separately purified GajA; source: E. coli BL21(DE3), purified (HisTrap HP, SEC Superdex 200)
B2: 3'-tailed dsDNA (dsDNA)
DNA 1: TCGGTACGACCTGCGAGCACTGCTT
DNA 2: AAGCAGTGCTCGCAGGTCGTACCGATTTTTTTTTTTTTTT
B3: GajB of the Gabija anti-phage defense system of Bacillus cereus VD045, purified on its own, (His)6-MBP tag cleaved by TEV protease (natural protein)
chain: T1 chain
notes: GajB, Bacillus cereus VD045, synthetic gene in pET28a with (His)6-MBP and a TEV site; 57.1 kDa as printed; the subdomains of the crystal structure span residues 1-494; the shorter of the two GajB forms that the discussion tells of (the long form has five more N-terminal residues); Monomer by SEC-MALS and analytical SEC; also called individually purified GajB; separately purified GajB; source: E. …

Assays:
[1] = target: T1, GajB of the Gabija anti-phage defense …; experiment: ITC
[2] = target: B3; experiment: ITC; 4°C; 20 μM GajB in the cell titrated with 20 injections of 2 μl of 200 μM GajA; 300 mM NaCl, 1 mM TCEP, 10% glycerol, 20 mM HEPES pH 7.5; triplicate; settings: both partners purified
[3] = target: the molecule itself; experiment: SEC-MALS + SEC; each protein alone; Superdex 200 Increase 10/300 GL with miniDAWN/Optilab, 300 mM NaCl, 2 mM DTT, 5% glycerol, 20 mM HEPES pH 7.5, 20 μM, 25 °C; analytical SEC in the same buffer
GajA;GajB = target: T2, GajA;GajB; experiment: EMSA; 10 uM protein, 5 uM DNA, 5 mM Mg2+, no ATP; EMSA: 5 mM MgCl2, 1 mM DTT, 0.75 uM BSA, 20 mM Tris-HCl pH 7.5, 25 C, 90 min; 2% agarose gel, ethidium bromide; settings: protein: recombinant;recombinant; chain copies: 4;4; label: fluorescein on the 25-mer in helicase assay; 25 bp duplex, 3' overhang 15 nt (T15) on strand 2
GajB = target: T3, GajB; experiment: as above; settings: protein: recombinant; tags: N-terminal His6-MBP removed with TEV protease; label: fluorescein on the 25-mer in helicase assay; 25 bp duplex, 3' overhang 15 nt (T15) on strand 2
UvrD = target: T4, UvrD; experiment: as above; settings: protein: recombinant; tags: N-terminal His6-MBP removed with TEV protease (as for GajB); label: fluorescein on the 25-mer in helicase assay; 25 bp duplex, 3' overhang 15 nt (T15) on strand 2
[4] = target: B1; experiment: ITC; 4°C; 20 μM GajB in the cell titrated with 20 injections of 2 μl of 200 μM GajA; 300 mM NaCl, 1 mM TCEP, 10% glycerol, 20 mM HEPES pH 7.5; triplicate; settings: both partners purified
[5] = target: B1; experiment: SEC-MALS; GajA pre-incubated with an excess of GajB (molar ratio 4:8); Superdex 200 Increase 10/300 GL, 300 mM NaCl, 2 mM DTT, 5% glycerol, 20 mM HEPES pH 7.5, 25 °C; settings: both partners purified
[6] = target: B1; experiment: SEC; analytical SEC, Superdex 200 10/300 GL; 300 mM NaCl, 2 mM DTT, 5% glycerol, 20 mM HEPES pH 7.5; samples 20 μM each, incubated at 4°C for 1 h before loading; also GajA pre-incubated with increasing amounts of GajB; settings: both partners purified

B1
Kd [1]: 54.3 nM and 36.9 nM | stoichiometry N [2]: ~1 | stoichiometry N [3]: 4

B2
binding result (GajA;GajB): no binding | binding result (GajB): no binding | binding result (UvrD): binds

B3
Kd [4]: ~46.4 nM | stoichiometry N [5]: 4 GajB monomers per GajA tetramer (4:4) | stoichiometry N [6]: 4 GajB monomers per GajA tetramer
